Experimental data published in PMC9667317, “Metal migration and subunit swapping in ALS-linked SOD1: Zn^2+ transfer between mutant and wild-type occurs faster than the rate of heterodimerization” (The Journal of Biological Chemistry, 2022).

Assays:
Conditions in all cases: both partners purified
[1] = target: T1, WT Cu, Zn superoxide dismutase-1 (SOD1), recombinant human (human, UniProt P00441 1-154); experiment: capillary electrophoresis; both homodimers apo (metal-free, disulfide intact), mixed at 15 μM dimer each ([SOD1]total = 30 μM), followed over time; 10 mM potassium phosphate pH 7.4, CE at 22 °C, storage at 15 °C; KHet assumed from the fit extrapolated to t = 5000 min
T1 construct: Cu, Zn superoxide dismutase-1 (SOD1), human; Homodimer; intramolecular disulfide bond intact; N-terminus probably acetylated (surmise); also called WT SOD1; WT apo-SOD1; source: demetalated by dialysis, remetalated with ZnSO4 where stated

[2] = target: T1, WT Cu, Zn superoxide dismutase-1 …; experiment: capillary electrophoresis; binder (first named) as apo-SOD1, target (second named, WT or TD) as 4Zn-SOD1; 15 μM dimer each ([SOD1]total = 30 μM), followed over time; 10 mM potassium phosphate pH 7.4, CE at 22 °C, storage at 15 °C; KHet assumed from the fit extrapolated to t = 5000 min
[3] = target: T1, WT Cu, Zn superoxide dismutase-1 …; experiment: capillary electrophoresis; binder (first named) as 4Zn-SOD1, target (second named, WT or TD) as apo-SOD1; 15 μM dimer each ([SOD1]total = 30 μM), followed over time; 10 mM potassium phosphate pH 7.4, CE at 22 °C, storage at 15 °C; KHet assumed from the fit extrapolated to t = 5000 min
[4] = target: T1, WT Cu, Zn superoxide dismutase-1 …; experiment: capillary electrophoresis; both homodimers as 4Zn-SOD1; 15 μM dimer each ([SOD1]total = 30 μM), followed over time; 10 mM potassium phosphate pH 7.4, CE at 22 °C, storage at 15 °C; KHet assumed from the fit extrapolated to t = 5000 min

T1 sequence (P00441 whole entry): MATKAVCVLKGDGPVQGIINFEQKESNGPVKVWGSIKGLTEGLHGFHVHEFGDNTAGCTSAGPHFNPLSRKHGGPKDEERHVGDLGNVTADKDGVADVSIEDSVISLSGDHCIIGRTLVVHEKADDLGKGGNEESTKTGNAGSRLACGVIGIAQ

assumed KHet (t = 5000 min) [1]: 2.34 ± 0.31 | kHet (rate constant of heterodimerization) [1]: 0.0128 min⁻¹ | assumed KHet (t = 5000 min) [2]: 2.27 ± 0.08 | kHet (rate constant of heterodimerization) [2]: 0.0066 min⁻¹ | assumed KHet (t = 5000 min) [3]: 2.09 ± 0.14 | kHet (rate constant of heterodimerization) [3]: 0.0041 min⁻¹ | assumed KHet (t = 5000 min) [4]: 2.13 ± 0.71 | kHet (rate constant of heterodimerization) [4]: 0.0038 min⁻¹
B1: triply deamidated SOD1 (modeled with N26D/N131D/N139D substitutions), recombinant human (enzyme)
chain: not shown
notes: Cu, Zn superoxide dismutase-1 (SOD1), human, triple mutant N26D/N131D/N139D; printed mass of the apo subunit 15847 Da; Homodimer; disulfide intact; also called TD SOD1; TD; source: demetalated by dialysis, remetalated with ZnSO4 where stated
